Test results as given in paper PMC2607554, “In-Vitro Helix Opening of M. tuberculosis oriC by DnaA Occurs at Precise Location and Is Inhibited by IciA Like Protein”.

Molecular target: T1, IciA (rIciA, LysR family) (Mycobacterium tuberculosis H37Rv, UniProt P9WMF5 1-303)
T1 sequence: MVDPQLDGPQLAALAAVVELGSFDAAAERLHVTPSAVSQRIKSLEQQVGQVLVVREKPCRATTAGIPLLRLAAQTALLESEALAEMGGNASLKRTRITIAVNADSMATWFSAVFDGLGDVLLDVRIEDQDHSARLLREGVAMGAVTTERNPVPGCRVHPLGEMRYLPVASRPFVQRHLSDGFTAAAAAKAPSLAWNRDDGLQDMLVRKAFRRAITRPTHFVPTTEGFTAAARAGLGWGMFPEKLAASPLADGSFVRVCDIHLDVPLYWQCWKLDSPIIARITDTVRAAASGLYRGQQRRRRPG
Assay: EMSA; 250-750 ng IciA, 1 ug poly(dI/dC)
Conditions: protein: recombinant; tags: His tag (pET28a NdeI/HindIII); chain copies: 4; label: 5' 32P; blunt

B1: A+T rich oriC oligonucleotide (Ori F1/Ori R1) (dsDNA)
DNA 1: TTCTTCCGACAACGTTCTTAAAAAAACTTCTCTA
DNA 2: TAGAGAAGTTTTTTTAAGAACGTTGTCGGAAGAA
- binding result: binds
